System: K4 kissing-loop RNA reporter
Test: apparent KD of K4 kissing-loop reporter; higher = weaker reporter binding
Settings: Eterna round: R107
Experimental: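 RNA-MaP round R107: designed RNA switches with theophylline, tryptophan, arginine or FMN aptamers are transcribed on-chip within common flanks. They are titrated with a labelled K4 kissing-loop RNA reporter in RNA-MaP buffer (100 mM Tris pH 7.5, 80 mM KCl, 4 mM MgCl2), without ligand or with the indicated ligand. Median apparent KD per design.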

[1] = input ligand: theophylline 20 uM
[2] = input ligand: tryptophan 2.4 mM
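Also: bound reporter read as fluorescence of individual clusters on recovered sequencing chips by microscopy, with normalized cluster intensities fitted with a binding model.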

Sequence | apparent KD of K4 kissing-loop reporter (input ligand: FMN 200 uM) | apparent KD of K4 kissing-loop reporter (input ligand: arginine 13.2 mM) | apparent KD of K4 kissing-loop reporter (input ligand: none) | apparent KD of K4 kissing-loop reporter [1] | apparent KD of K4 kissing-loop reporter [2]
UGAUUGCCAGUGAUGUUGGCAUAUACUGAAGGAGCGCGUGAAAACGCAGGUAGGUCGCAGUUCCUUGCCAAUUGAUCGAAAGAUC [KL-XArg-A1] | 130 nM | 138 nM | 137 nM | 150 nM | 127 nM
AUGGUAUUGCGAGGAUAUCCUUCAAAUGUGACACUAACGGCAGUGAUGUUGCCGGCGUCUUUUUGAGGAGAAGGCGCGGUGUUAU [Exclusion FMN B GF 24] | 114 nM | 112 nM | 129 nM | 114 nM | 114 nM
CGUACGGUUUCUUUCUUUCCGUACGAGUGCCGAGGACCGGUACGGCCGCCACUCGCUACAGCCUAGUGAUGUUAGGAACGUGUUA | 87.2 nM | 73.1 nM | 81.8 nM | 87.3 nM | 54.7 nM
CAGGCCGAGUGAUGUUCGGUCUGAGUGAUAAAGGAUAUAAGGGAUUUUAGAAGGUUAUCUAAACAGACCAAACAUCUAUCCACUC [theeternabot_exclusion_KL_FMN_A_16] | 221 nM | 128 nM | 138 nM | 145 nM | 122 nM
AGUAGAGCAUCAGAUACCAGACAGAACUGAUGGUAAGGAGUGAUGUUCCUUAAUCAGCUUGUCCCUUGGCAGCUGAUAGUAGUCA [#14 K4 Theophylline B Same State] | 388 nM | 417 nM | 431 nM | 348 nM | 383 nM
GCGAGUUUGCAAGGAUAUCGACCGUCGUACGACCAGUGAUGUUGGGAGUACUUUCAAAAUCGAUUUCGAGAAGGUGCUGGCAUCA [theeternabot_sameState_KL_FMN_B_12] | 271 nM | 212 nM | 250 nM | 248 nM | 234 nM
GUACGCUCUCGAGUGAUGUUCGGUAAUCCUUAGGAUAUCGCUUUUGCGAGAAGGAAGGGAAUGAGGAAACUCGUUCUGAGUGUAC [FMN A 21] | 523 nM | 299 nM | 366 nM | 481 nM | 743 nM
AAUGUACAAGUGAUGUUUGUACUUUCCGAAGGAGCGUCUAAUAAGACAGGUAGGUCGCGGAUUAUCAUAAUUAUCAGGUUUUCAA [JR_SSArginiA_Sub015] | 98.8 nM | 88.8 nM | 92.4 nM | 89.1 nM | 90.9 nM
GCCGUACGCAUGGAUACCAGAGAUGUUAGUCUCGAUGCCAGUGAUGUUGGCUAUAGCAUACUCCCUUGGCAGCCAUGCGUACGGC | 132 nM | 113 nM | 128 nM | 113 nM | 107 nM
GGUAGCAUGGCGGCCGCCACUUAUGUUCACAUAGUGAUGUUAUGUUCACAUUUAUGGCCCUGCUUAAGGACCGGGCCAUGCUACC | 118 nM | 90.3 nM | 105 nM | 82.1 nM | 272 nM
GGUUUAUAGGAGGAUACCAGUACGGAUAAAGUACGUUAAUAGUAGAGUGAUGUUCUAAAGUACCCUUGGCAGCUUAGAUUAAGUU [ExTheophylB.J] | 72 nM | 142 nM | 106 nM | 110 nM | 64.4 nM
UGCGCUGUGUACUGAAAUGUUCUGCGGGAUACCAGAGUCUUUUUAUUCCCUUGGCAGCUUGAGUGAUGUUUGAUGCCGUUCUUGU [tffeymullin] | 494 nM | 279 nM | 513 nM | 521 nM | 435 nM
AACGUUUUGAGAAGGAGCGCGAUAAGCAGUGAUGUUGCUAUAAUUCUAUUUCUAUUUAAUUCGCAGGUAGGUCGCUCAAUACGUA [JR_SSArginiB_Sub019] | 136 nM | 134 nM | 134 nM | 138 nM | 119 nM
GAACGGCGGGCGGCCGCCACUGGUAUACGAGUGAUGUUCGGAUAUACGUGAUGUAAGGUAAUUAACAGGACCGGGUCAGGGCCGG [whbob_SS_Tryp_B_t20] | 278 nM | 208 nM | 239 nM | 294 nM | 238 nM
UGAUAGGACAGAAGGAGCGAGGAGUGAUGUUCCUCAAAAGGUCUAGCAAAGCUAGACCCUCCUCAGGUAGGUCGCUGUCCUAUCU [ArgBX 1 #Palindromic #SwitchBubble #StaticStem] | 174 nM | 162 nM | 167 nM | 232 nM | 158 nM
AGUGCACUGUCAGGAUAUAUACAGUGAUGUUGUGUAUGUCAGCAAGUCAAAGACUUGCUCUUCUGUGUAGAAGGGACUGUGUACA [Omei KL FMN B Exc A v4] | 157 nM | 118 nM | 133 nM | 117 nM | 133 nM
UGUACAUGUCACCGAGUGAUGUUCGACGAUACCAGACUCGAUAGAGUCCCUUGGCAGCGUAACGCAUGCCAAAGUGGCAUGUACU [#SwitchBubble 10 #K4Early] | 925 nM | 521 nM | 721 nM | 496 nM | 598 nM
UCCUGCAAUCUGCCACGAAAGUGGGUUGAUACCAGAGUCGAAAGACUCCCUUGGCAGCGAGUGAUGUUCGUUGCAGGUGUAUAAA [MatMod 10 - Jieux - Exclusion - Theophylline A] | 195 nM | 184 nM | 194 nM | 209 nM | 179 nM
UUGAGCCUGACGCAAGUCAGGCUCUGCGAGCGAGGACCGGUACGGCCGCCACUCGGUGCAGUGAUGUUGCAUGGCCGCAAGGCCG [#2 Exclusion - Tryptophan A Attempt #17 (HarryS)] | 316 nM | 299 nM | 318 nM | 394 nM | 441 nM
GCGUCAUCGAAAGGAUAUGGAGUAGUGAUGUUGAUCCAUAUGCUCACGCAUAGCCGAGAACAUCGACCAGAAGGUUCAAGAACUG [theeternabot_exclusion_KL_FMN_B_41] | 672 nM | 509 nM | 757 nM | 520 nM | 459 nM
AGGUUUUACGGAGGAUAUGCACUGAGGAGGAGAAUAUAGUGAUGUUAUAUAAGAGGAAGGAGAAGAGUAGAAGGCCGUGAGGUUU [SSFMNB.M] | 136 nM | 130 nM | 149 nM | 204 nM | 98.6 nM

Sequence | apparent KD of K4 kissing-loop reporter (input ligand: FMN 200 uM) | apparent KD of K4 kissing-loop reporter (input ligand: arginine 13.2 mM) | apparent KD of K4 kissing-loop reporter (input ligand: none) | apparent KD of K4 kissing-loop reporter [1] | apparent KD of K4 kissing-loop reporter [2]
ACACUAUCGUCAUAGACGGUAGUGAACACACAGGAUAUGAGUGAUGUUAGAAGGGUGUAAGACUGUAUCGAAUAGAUACAGUCAA [FmnA 7 #K4BetweenAptamer #OpenEnded] | 400 nM | 142 nM | 204 nM | 192 nM | 190 nM
UGAUACCAGACGGCCGCCACUCCCGUAAGUCAAAGACUUACGAAGAGAGUUUUUCAGUGAUGUUGGAGGACCGGGUCUGGUAUCU [FiskerMod 16 - Jieux - Exclusion - Tryptophan B] | 838 nM | 618 nM | 870 nM | 850 nM | 721 nM
ACCCGGGCCCGAAAGGGCCCGGGAAGAGAUACCAGCAGCGAAAGCUGCCCUUGGCAGCUCACUUAGUGAUGUUGAGAAUAGGGCG [#21 K4 Theophylline A Same State] | 657 nM | 221 nM | 554 nM | 299 nM | 225 nM
UUAUAUAAUUUGUCUUUUUUAACAUUAAGUCAGGAUAUCGUAUAUUCGAGAAGGGACACAUGCUAGUGAUGUUAGCUAUUUCUUU [JR_ExcFMNA_Sub016] | 31.7 nM | 55.3 nM | 30.4 nM | 43 nM | 30.6 nM
UGAUUUAACUGAAGGAGCGGCAAUAGAGAAGGAAAUAUAGUGAUGUUAUAUAAGAGAGAGAGCCAGGUAGGUCGCAGAGGGAGGA [ExArgB.F] | 181 nM | 128 nM | 137 nM | 171 nM | 151 nM
GACAUACCUAUGGAGGGCCGAUCGAUCAUACGAGGACCGGUACGGCCGCCACUCGUGGGCAGUGAUGUUGACCCUGGGAGGUAAG | 316 nM | 223 nM | 252 nM | 232 nM | 483 nM
CUUGUACAUGCCGAGGUAGGUGCGGGUUAGCGAGGACCGGUACGGCCGCCACUCGCCAAGUGAUGUUUGGUCCUUUGGGUCGGCA | 948 nM | 507 nM | 562 nM | 663 nM | 633 nM
ACAUCGGUUGAGAGUGAUGUUCCUUGUGUUCGAGGACCGGUACGGCCGCCACUCGGGUAGAAAAUAAAAGAUGUGUUUGAUUUUU [BDazzled - #15 SS Tryptophan A] | 260 nM | 42.1 nM | 143 nM | 275 nM | 223 nM
UGAUAGGACAGAAGGAGCGGCAGUGAUGUUGCCAAAAGGGUAAGGUGUCAAAAGACACCCUGCCAGGUAGGUCGCUGUCCUAUCU | 166 nM | 173 nM | 162 nM | 163 nM | 134 nM
GUAGUUGCGCAAGGAUAUUAGUUAAGUGAUGUUUGAUUCGGUAUUGUUUACGUACACUGACCCGAUUAAGAAGGUGCGGGCAGCG [theeternabot_exclusion_KL_FMN_B_50] | 604 nM | 582 nM | 580 nM | 343 nM | 369 nM
CCGACUGCAGGAAGGAGCGGCGGUUGGAGUGAUGUUCCGGGUAGUGAUGUUACCAAGAUCCGCCAGGUAGGUCGCCUGUUGCUCG [Same State Arginine B GF11] | 134 nM | 117 nM | 129 nM | 122 nM | 120 nM
CGUUUAUAGCAGGAUACCAGUACCCAUAAAGUACGUUAAUAGUAGAGUGAUGUUCUAAAGUACCCUUGGCAGCUUCCAGUGAGUG [ExTheophylB.S] | 102 nM | 157 nM | 142 nM | 165 nM | 85.3 nM
AUAAUAUGAGUGAUGUUCAUGUAAGCUGAAGGAGCGGACGAAAGUCCAGGUAGGUCGCAGCGUUCCUUUACCUCAUGAGAAGGAG [KL_SSArg-A1 #analogue] | 125 nM | 184 nM | 203 nM | 235 nM | 127 nM
GGUUGAAGUACCCGGAGUGAUGUUCCGGAUACCAGCAAACCAACUUGCCCUUGGCAGCCGUAUAGCGUCCGGUGGACCGAGCAUA [Soriesreve] | 98.5 nM | 70.3 nM | 77.4 nM | 76.2 nM | 78.7 nM
GAUUUAGAGGCGGCCGCCACUAGUGAUGUUAGUGAUGUUUGAUACGGAAUAUAUCUGCGAGUAGAUAGGACCGGGCCAGAUGGAG [rttrbmullin] | 207 nM | 150 nM | 170 nM | 184 nM | 181 nM
GGCAGUGAUGUUGCCUAAGCAACGCAUGCAGAGGAUAUUCGUUCGGGAAGAAGGCUGCAGCGUUCUCUCGCGAGUGAUGUUCGCG [Same State FMN A GF 23] | 182 nM | 137 nM | 165 nM | 165 nM | 162 nM
UGACUGGACUGAAGGAGCGUUGAAGGAGCGUAGUGAGUGAUGUUCACUACAGGUAGGUCGCAGCAGGUAGGUCGCAGUCUAGUCU [ArgBS 25 #DoubleAptamer #SwitchBubble] | 149 nM | 107 nM | 101 nM | 83 nM | 145 nM
AAUAAGGAGUGAUGUUCCAAGUGAUGUUAACGAGGACCGGUACGGCCGCCACUCGAUACGGCCGGAAAAUAAAAUAAAAUAAAAU [Same State - Tryptophan A (Freestyle 1)] | 103 nM | 119 nM | 134 nM | 120 nM | 124 nM
UGAUACCAGACUGAUACCAGCAAGUGAUGUUUGCUGAUCUAAAGCAGUCAAAGACUGCCUUGCCCUUGGCAGCAGUCUGGUAUCU [TheoBX 25 #SwitchBubble #StaticStem] | 92.3 nM | 81.7 nM | 96.6 nM | 156 nM | 81.1 nM
AAAGGAGUGGAAGGAUAUCCUGGUGUGGGUGGUGUUAGUGAUGUUGGUGGUGCAGUGAUGUUGCGCGGAGAAGGUCCGGUAUUGG [BDazzled - #2 - Exc. FMN B] | 485 nM | 462 nM | 437 nM | 517 nM | 410 nM
GUGCGCGCGGCGGCCGCCACUCGCAUGAGAGUGAUGUUCUUGCCCGGGCCGCAAGGCCCGGGUGUGAGGACCGGGCCGGGCUGCG [#2 Same State - Tryptophan B Attempt #26 (HarryS)] | 115 nM | 1.09 nM | 180 nM | 0.148 nM | 425 nM
